The results in this text go back to IntAct's records for PubMed 24855951.

This assay has as its target dtx_drome dx (UniProt Q23985).

dtx_drome dx, sequence (Q23985 whole entry): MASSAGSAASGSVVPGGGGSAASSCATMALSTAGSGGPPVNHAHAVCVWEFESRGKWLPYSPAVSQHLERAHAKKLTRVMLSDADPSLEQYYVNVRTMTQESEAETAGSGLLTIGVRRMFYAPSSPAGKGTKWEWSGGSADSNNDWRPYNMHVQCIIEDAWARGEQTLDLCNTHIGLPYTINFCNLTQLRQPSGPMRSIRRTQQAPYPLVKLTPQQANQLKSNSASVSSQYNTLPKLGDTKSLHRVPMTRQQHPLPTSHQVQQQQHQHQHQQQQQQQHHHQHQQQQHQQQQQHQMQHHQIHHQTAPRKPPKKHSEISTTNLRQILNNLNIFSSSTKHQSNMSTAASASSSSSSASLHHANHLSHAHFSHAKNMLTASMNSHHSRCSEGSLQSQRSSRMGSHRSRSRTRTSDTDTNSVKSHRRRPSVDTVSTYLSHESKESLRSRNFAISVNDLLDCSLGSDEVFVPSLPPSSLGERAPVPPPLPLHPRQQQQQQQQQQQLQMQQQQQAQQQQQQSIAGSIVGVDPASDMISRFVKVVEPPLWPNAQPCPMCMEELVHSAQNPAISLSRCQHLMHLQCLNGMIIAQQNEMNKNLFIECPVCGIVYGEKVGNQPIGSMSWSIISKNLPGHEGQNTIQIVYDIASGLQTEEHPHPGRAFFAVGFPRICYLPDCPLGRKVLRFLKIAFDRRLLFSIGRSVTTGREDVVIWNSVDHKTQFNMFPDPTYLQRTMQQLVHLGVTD

For “Neurogenic locus Notch protein (Drosophila melanogaster (Fruit fly)), P07207 R2027A”, the “effect of a mutation on the interaction” value was “disrupting interaction strength”.
